Experimental findings from article PMC11032447, “A hydrophobic groove in secretagogin allows for alternate interactions with SNAP-25 and syntaxin-4 in endocrine tissues” (Proceedings of the National Academy of Sciences of the …, 2024) are described below.

B2: mouse secretagogin (natural protein, UniProt Q91WD9 1-276, looked up)
chain: MDNARRKTPARLDAACFWQIWQRFDKEEKGYIRETELDAFFDHLLAKSGTEDTLMEENVQKVKEQLMTSHNVSKEGRILMKELASMFLSEDENFLLFFRLETPLDNSVEFMQIWRKYDADSSGFISAAELCNFLRDLFLHHKKNISEAELEEYTSTMMKIFDKNKDGRLDLNDLARILALQENFLLQFKMDASSTEERKRDFEKIFAHYDVSKTGALEGPEVDGFVKDMMELVQPSISGVDLDKFREILLRHCDVNKDGKIQKSELALCLGLKINP
notes: mouse secretagogin, the three-domain protein (domains A, B, C); construct in Dataset S1; also called mSCGN; SCGN; source: recombinant, produced and purified; E. coli BL21(DE3) named for the pull-down constructs
B4: Habc domain of mouse syntaxin-4 (domain or fragment, UniProt P70452 32-170, looked up)
chain: ARLGSPDDEFFQKVQTIRQTMAKLESKVRELEKQQVTILATPLPEESMKQGLQNLREEIKQLGREVRAQLKAIEPQKEEADENYNSVNTRMKKTQHGVLSQQFVELINKCNSMQSEYREKNVERIRRQLKITNAGMVSD
notes: mouse syntaxin-4, globular Habc domain; limits in Dataset S1; The His6 tag is told for the pull-down baits; a Habc with the N-peptide is m36; also called Habc module of syntaxin-4; syntaxin-4-derived Habc module; source: recombinant, produced and purified; E. coli BL21(DE3) named for the pull-down constructs

No end group written: not given here.

Assay [1] has as its target T1, human secretagogin (human, UniProt O76038 1-276).
T1 construct: human secretagogin; construct in Dataset S1; Construct limits are in Dataset S1; also called recombinant human secretagogin; source: recombinant; coexpressed and copurified with the GFP fusion, or purified
T1 sequence (looked up): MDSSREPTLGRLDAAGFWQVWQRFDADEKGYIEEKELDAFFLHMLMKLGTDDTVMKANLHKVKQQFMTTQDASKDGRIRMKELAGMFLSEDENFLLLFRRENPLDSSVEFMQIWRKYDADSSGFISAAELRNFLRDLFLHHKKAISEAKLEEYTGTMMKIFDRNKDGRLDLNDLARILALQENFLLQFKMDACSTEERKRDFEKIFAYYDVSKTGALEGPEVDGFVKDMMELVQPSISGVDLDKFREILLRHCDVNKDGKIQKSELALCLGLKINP
The assay can be described thus: co-expression and co-purification + SEC; GFP-peptide fusion coexpressed with human secretagogin; in the presence of Ca2+. As to conditions: partners not purified.

The target of assay [2] is B4. The assay can be described thus: ITC; in the presence of Ca2+. As to conditions: both partners purified. On the technique in general: Isothermal titration calorimetry measures the heat released or taken up as one component is titrated into another.
Assay [3] concerns the target T2, C-terminal SNARE domain of mouse SNAP-25 (mouse, UniProt P60879 140-206).
T2 construct: mouse SNAP-25, C-terminal SNARE domain (helix), identical in SNAP25-1 and SNAP25-2; limits in Dataset S1; The pull-down fragments are said to derive from isoform-2; also called SNAP-25c; SNAP-25C; source: recombinant; E. coli BL21(DE3) named for the pull-down constructs
The assay can be described thus: ITC; in the presence of Ca2+. As to conditions: both partners purified.

Assay [4] concerns the target B2. The experiment in a line: ITC; in the presence of Ca2+. As to conditions: both partners purified.
Assay [5] addresses B2. The experiment in a line: ITC; GFP-fusion peptides of the syntaxin-4 Hb helix; the sentence names no method, the values are said to stand in SI Fig. S3E and SI Table S1 (ITC data). As to conditions: both partners purified.

T2 sequence (P60879 140-206): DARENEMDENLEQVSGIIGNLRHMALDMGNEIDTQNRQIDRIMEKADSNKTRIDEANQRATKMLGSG

B1: GFP carrying the SNAP-25-derived peptide (AA155-179) at its C-terminus (peptide)
chain: GIIGNLRHMALDMGNEIDTQNRQID
notes: SNAP-25 stretch 155-179 (mouse and human identical), attached to the C-terminus of GFP; GFP serves as crystallization chaperon; also called GFP-SNAP-25c chimera; GFP-linked SNAP-25-peptide; source: coexpressed and copurified with secretagogin; not shown: GFP, N-terminal, kept
Regarding B1, the binding result in assay [1] is reported as “binds”.

As a reminder, the stoichiometry N is the number of molecules, sites or subunits per partner or assembly. For the molecule B2, the “stoichiometry N” value in assay [2] and in assay [3] was 1 each time.

B3: helix-b of the Habc domain of mouse syntaxin-4 (domain or fragment, UniProt P70452 72-109, looked up)
chain: TPLPEESMKQGLQNLREEIKQLGREVRAQLKAIEPQKE
notes: limits in Dataset S1; Used as bait in the pull-down; also called Hb; syntaxin-4 Hb; source: recombinant; E. coli BL21(DE3) named for the pull-down constructs
By Kd is commonly meant a measure of binding affinity in units of concentration. For B3, the Kd in assay [4] is approximately 209 nM.

Turning to B4, in assay [4], the dissociation constant (Kd) is approximately 14000 nM.

B5: GFPmSTX4Hb7 (peptide)
chain: TPLPEESMKQGLQNLREEIKQLGREVRAQLKAIEPQKE
modifications: also: fused as C-terminal tag to GFP
notes: mouse syntaxin-4, stretch of the Hb helix, C-terminal tag on GFP; source: recombinant GFP fusion; not shown: GFP, N-terminal, kept
B5 yielded a Kd in assay [5] of 275 nM.

B6: GFPmSTX4Hb9 (peptide)
chain: ESMKQGLQNLREEIKQLGREVRAQLKAIEPQKE
modifications: also: fused as C-terminal tag to GFP
notes: as for B5
In assay [5], B6 showed a dissociation constant Kd of 541 nM.

B7: mouse SNAP-25 peptide 155-179 (peptide)
chain: GIIGNLRHMALDMGNEIDTQNRQID
notes: mouse SNAP-25, stretch of the C-terminal helix; Tags of the deletion constructs are in Dataset S1; also called mSNAP-25^14−33; SNAP-25^14–33; source: recombinant deletion construct of SNAP-25c
As for B7, in assay [4], the dissociation constant Kd is approximately 46.6 nM.

B8: GFPmSTX4Hb10 (peptide)
chain: GLQNLREEIKQLGREVRAQLKAIEPQKE
modifications: also: fused as C-terminal tag to GFP
notes: mouse syntaxin-4, stretch of the Hb helix, C-terminal tag on GFP; A linker stands between GFP and the peptide; also called GFP-syntaxin-4-peptide; chimeric GFP-syntaxin-4 (STX4)-derived peptide; source: recombinant GFP fusion; complex with secretagogin isolated by preparative SEC; not shown: GFP, N-terminal, kept
Take B8: binding in assay [5] was put at a Kd of 826 nM.

B9: helix-a of the Habc domain of mouse syntaxin-4 (domain or fragment, UniProt P70452 32-80, looked up)
chain: ARLGSPDDEFFQKVQTIRQTMAKLESKVRELEKQQVTILATPLPEESMK
notes: limits in Dataset S1; Used as bait in the pull-down; source: recombinant; E. coli BL21(DE3) named for the pull-down constructs
B9: the Kd in assay [4] was approximately 7000 nM.
